Publication PMC2677865

Assays:
Assay in all cases: two-hybrid
BD-CK2α = BD-CK2α (UniProt Q60737)
BD-CK2β = BD-CK2β (UniProt P67871)
[1] = molecular target: GAL4-DB-CK2α′ fusion protein (mouse) (UniProt O54833)
BD-CKT2 (mouse) = BD-CKT2 (mouse) (UniProt Q8CH19)
BD-CKT2 1-137 (mouse) = BD-CKT2 1-137 (mouse) (UniProt Q8CH19)
BD-CKT2 138-276 (mouse) = BD-CKT2 138-276 (mouse) (UniProt Q8CH19)

Chain of UniProt Q60737 (Q60737 whole entry): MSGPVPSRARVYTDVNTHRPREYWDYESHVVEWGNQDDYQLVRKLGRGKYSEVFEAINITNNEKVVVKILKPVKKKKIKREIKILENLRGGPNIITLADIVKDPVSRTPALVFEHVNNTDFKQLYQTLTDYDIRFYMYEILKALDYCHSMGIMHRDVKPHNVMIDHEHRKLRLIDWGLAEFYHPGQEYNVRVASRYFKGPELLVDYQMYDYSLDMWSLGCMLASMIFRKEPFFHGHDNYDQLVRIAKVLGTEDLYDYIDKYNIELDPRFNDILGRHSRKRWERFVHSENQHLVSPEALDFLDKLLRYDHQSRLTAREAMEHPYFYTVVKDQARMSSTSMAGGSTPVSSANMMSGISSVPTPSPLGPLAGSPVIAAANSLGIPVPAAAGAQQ
Chain of UniProt P67871 (P67871 whole entry, the tested form may be a part): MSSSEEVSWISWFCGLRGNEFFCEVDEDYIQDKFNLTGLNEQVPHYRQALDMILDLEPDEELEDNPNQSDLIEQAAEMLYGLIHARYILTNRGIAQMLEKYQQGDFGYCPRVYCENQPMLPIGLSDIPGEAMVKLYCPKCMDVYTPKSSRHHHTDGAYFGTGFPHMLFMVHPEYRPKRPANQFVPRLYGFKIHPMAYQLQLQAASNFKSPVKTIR

β-Gal activity (BD-CK2α)	β-Gal activity (BD-CK2β)	β-Gal activity [1]	β-Gal activity (BD-CKT2 (mouse))	β-Gal activity (BD-CKT2 1-137 (mouse))	β-Gal activity (BD-CKT2 138-276 (mouse))	Molecule
1	< 0.05	5.8				CKT2 (CK2 Target protein 2), full length, in pACT2 (from UniProt Q8CH19 1-720) (natural protein)
			5.2	2.8	6.5	CK2α′ as the active (activation) domain fusion (natural protein) MPGPAAGSRARVYAEVNSLRSREYWDYEAHVPSWGNQDDYQLVRKLGRGKYSEVFEAINITNNERVVVKILKPVKKKKIKREVKILENLRGGTNIIKLIDTVKDPVSKTPALVFEYINNTDFKQLYQILTDFDIRFYMYELLKALDYCHSKGIMHRDVKPHNVMIDHQQKKLRLIDWGLAEFYHPAQEYNVRVASRYFKGPELLVDYQMYDYSLDMWSLGCMLASMIFRKEPFFHGQDNYDQLVRIAKVLGTDELYGYLKKYHIDLDPHFNDILGQHSRKRWENFIHSENRHLVSPEALDLLDKLLRYDHQQRLTAKEAMEHPYFYPVVKEQSQPCAENTVLSSGLTAAR
